In patent publication US20050222390A1 (IMMATICS BIOTECHNOLOGIES, published 2005):

Molecular target: T1, recombinant HLA-A*0201-molecules (human)
T1 construct: Folded in vitro with the peptides, purified by gel filtration
Assay: in vitro folding of HLA-A*0201 with peptide, gel filtration

binding result	Binder
binds	SVASTITGV (Also synthesized (Fmoc) for tetramers and pulsing; also called adipophilin-peptide; adipophilin fragment) [SVASTITGV (adipose differentiation-related protein 129-137)]
binds	ALLNIKVKL (Found in tumors of both patients RCC01 and RCC13; also called keratin 18 peptide) [ALLNIKVKL (keratin 18 365-373)]
binds	YVDPVITSI (Found in tumors of both patients RCC01 and RCC13; also synthesized (Fmoc) for tetramers and pulsing; also called c-Met-peptide; c-Met-protooncogene-fragment) [YVDPVITSI (met proto-oncogen 654-662)]
